From the supplement of paper PMC7125110
± gives the standard error. Fewer inactive variants are shown than the library holds.

B1: glmS ribozyme (parent)
chain: AUAAAAGCGCCAGAACUACAGAAAUGUAGUUGACGAGGAGGAGGUUUAUCGAAUUUUCGGCGGAUGCCUCCAAA

Assays:
Conditions in all cases: with glucosamine-6-phosphate
glucosamine-6-phosphate [1] = variants of: B1; assay: self-cleavage kobs at 40 uM GlcN6P; higher = faster cleavage; RNA array
Outline: (§1)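 In situ transcription by E. coli RNA polymerase produced barcoded ribozyme variants on sequenced MiSeq chips, and a hybridised Cy3 probe tracked them at 37 °C. Glucosamine-6-phosphate was flowed in at 40 μM to 10 mM in HEPES/KCl/Mg(OAc)2 buffer. kcat and KM were taken from weighted Michaelis–Menten fits of kobs values from exponential decay fits.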

glucosamine-6-phosphate [2] = variants of: B1; assay: self-cleavage kobs at 160 uM GlcN6P; higher = faster cleavage; RNA array
Outline: as §1

glucosamine-6-phosphate [3] = variants of: B1; assay: self-cleavage kobs at 640 uM GlcN6P; higher = faster cleavage; RNA array
Outline: as §1

glucosamine-6-phosphate [4] = variants of: B1; assay: self-cleavage kobs at 2500 uM GlcN6P; higher = faster cleavage; RNA array
Outline: as §1

glucosamine-6-phosphate [5] = variants of: B1; assay: self-cleavage kobs at 10000 uM GlcN6P; higher = faster cleavage; RNA array
Outline: as §1

| Variant | self-cleavage kobs at 40 uM GlcN6P (glucosamine-6-phosphate [1]) [s⁻¹] | self-cleavage kobs at 160 uM GlcN6P (glucosamine-6-phosphate [2]) [s⁻¹] | self-cleavage kobs at 640 uM GlcN6P (glucosamine-6-phosphate [3]) [s⁻¹] | self-cleavage kobs at 2500 uM GlcN6P (glucosamine-6-phosphate [4]) [s⁻¹] | self-cleavage kobs at 10000 uM GlcN6P (glucosamine-6-phosphate [5]) [s⁻¹] |
| --- | --- | --- | --- | --- | --- |
| AUAAAAGCGCCAGAACUACAGAAAUGUAGUUGACGAGGAGCAGGUUUAUCGAAUUUUCGGCGGAUGGCUCCAAA [G41C C67G] | < 1e-05 | < 1e-05 | < 1e-05 | < 1e-05 | < 1e-05 |
| AUAAAAGAGCCAGAUCUACAGAAAUGUAGUUGACGAGGAGGAGGUUUAUCGAAUUUUCGGCGGAUGCCUCCAAA [C8A A15U] | < 1e-05 | < 1e-05 | < 1e-05 | < 1e-05 | < 1e-05 |
| AUAAAAGCGCCAGAACUACAGAAAUGUAGUUGACGAGGAGGAGGUUUAUCGAAUUUUCGGCAGAUGCCUCAAAA [G62A C71A] | < 1e-05 |  |  |  | < 1e-05 |
| AUAAAAGCGCCAGAUCUACAGAAAUGUAGUUGACGAGGAGGAGGUUUAUGGAAUUUUCGGAGGAUGCCUCCAAA [A15U C50G C61A] | 0.000142 ± 3e-05 |  |  |  | 7.29e-05 ± 1.7e-05 |
| AUAAAAGCGCCAGAACUACAGAAAUGUAGUUGACGAGGAGGAGGUUUUUCGGAUUUUCGGCGAAUGCCUCCAAA [A48U A52G G63A] | < 1e-05 |  |  |  | < 1e-05 |
| AUAAAAGCGCCAGCACUACAGAAAUGUAGUUGAAGAGGAGGAGGUUUAUCGAAUUUUCGGCGGAUGCCUCCAAA [A14C C34A] | < 1e-05 | < 1e-05 | < 1e-05 |  | < 1e-05 |
| AUAAAAGCGCCAGAACUACAGAAAUGUAAUUGACGUGGGGUAGGUUUAUCGAAUUUUCGGCGGAUGGCUCCAAA [G29A A36U A39G G41U C67G] | < 1e-05 |  |  | < 1e-05 |  |
| AUAAAAGCGCCAGAACUACAGAAAUGUAGUUGACGACGAGGAGUUUUAUCGAAUUUUCGGCGGAUGCCUCCAAA [G37C G44U] | < 1e-05 |  | < 1e-05 |  |  |
| AUAAAAGCGCCAGAACUACAGAAAUGUAGUUGACGAGGAGGAGGUUUCUCGUAUUUUCGGCGGAUGCCUACAAA [A48C A52U C70A] | < 1e-05 |  |  |  |  |
| AUAAAAGCGCCAGGACUACAGAAAUGUAGUUGACGAGGAGGAGGUUUAUCGAAUUUUCGGCGGAUGCCUCGAAA [A14G C71G] | 0.00028 ± 3.6e-05 | 0.000718 ± 0.00016 | 0.00058 ± 7.9e-05 |  | 0.00586 ± 0.0014 |
| AUAAACGCGCCAGAACUACAGAAAUGUAGUUGACGAGGAGGAGGUUUAUGGAAUUUUCGGCGGAUGCCUUCAAA [A6C C50G C70U] | 0.000111 ± 3.3e-05 |  | 0.000347 ± 0.0001 | 0.000114 ± 2.7e-05 | 0.000121 ± 2.9e-05 |
| AUAAAAGCGUCAGAACUACAGAAAUGUAGUUGACGAGGAGGAGGUUUAUCGAAUUUUCGUCGGAUGCCUCCAAA [C10U G60U] | < 1e-05 | < 1e-05 | < 1e-05 |  | < 1e-05 |
| AUAAAAGCGCCAGAACUACAGAAAUGUAGAUGACGAGGAGGAGGUUUAUCGAAUUUUAGCCGGAUGCCGCCAAA [U30A C58A G60C U69G] | < 1e-05 |  |  |  | < 1e-05 |
| AUAAAAGCGCCAGAACUACAGAAAUGUAAUUGACGAGGAGGAGGUUUAUCGAAUCUUCGGGGGAUGCCUCCAAA [G29A U55C C61G] | < 1e-05 |  |  |  |  |
| AUAAAAGCGCCAGAACUACAGAAAUGUAGUUGACUAGGAGGAGGUUUGUCGAAUUUUCGGCGGAUGCCUCCAAA [G35U A48G] | < 1e-05 | < 1e-05 | < 1e-05 |  | < 1e-05 |
| AUAAAAGCGCCAGAACUACAGAAAUGUAGAUGACGAGGAGGAGGUUUGUCGAAUUUUCGGCGGAUGCCUCCAAA [U30A A48G] | < 1e-05 | < 1e-05 | < 1e-05 |  |  |
| AUAAAAGCGCCAGAACUACAGAAAUGUAGUUGACGAGGAGGAGGUUUAUCAAAUUUUCGGCCGAUGCCUCCAAA [G51A G62C] | < 1e-05 | < 1e-05 | < 1e-05 | < 1e-05 | < 1e-05 |
| AUAAAAGCGCCAGAACUACAGAAAUGUAGUUGACGAGGAGUAGGUUUUUCGAAUUUUCGGCGGAUGCAUCCAAA [G41U A48U C68A] | < 1e-05 |  |  | < 1e-05 |  |
| AUAAAAGCGCCAGAACUACAGAAAUGUAGUUGACGAGCAGGAGGUUUAUCGAAUUCUCGGCGGAUGCCUCCAAA [G38C U56C] | < 1e-05 | < 1e-05 |  | < 1e-05 | < 1e-05 |
| AUAAAAGCGCCAGAACUACAGAAAUGUAGUUCACGAGGAGGAGGUUUAUCGAAUUUUCGGCGGAAGACUCCAAA [G32C U65A C67A] | 0.000151 ± 3.6e-05 |  | 0.000426 ± 0.0001 |  | 0.00023 ± 5.9e-05 |
| AUAAAAGCGCCAGAACUACAGAAAUGUAGUGGACGGGGAGGAGGUUUAUCGAAUUUUCGGCGGAUGCCACCAAA [U31G A36G U69A] | < 1e-05 |  |  |  | < 1e-05 |
| AUAAAAGCGCCAGACCUACAGAAAUGUAGUUGCCGAGGAGGAGGUUUAUGGAAUUUUCGGGGGAUGCCUCCAAA [A15C A33C C50G C61G] | 0.000147 ± 3.9e-05 |  |  |  | 0.000196 ± 3.4e-05 |
| AUAAAAGCGCCAGAACUACAGAAAUGUAGUUGAUGAGGAGGAGGUUUAUCGAAUUUUCGGCGGAUUCCUCCAAA [C34U G66U] | < 1e-05 | < 1e-05 |  |  | < 1e-05 |
| AUAAAAGCGCCAGAACUACAGAAAUGUAGUUGAUGAGGAGGAGGUUUAUCGAAUCUUCGGCGGAUGCCUCCAAA [C34U U55C] | < 1e-05 | < 1e-05 | < 1e-05 | < 1e-05 | < 1e-05 |
| AUAAACGCGCCAGAACUACAGAAAUGUAGUUGACGAGGAGGAUGUUUAUCGAAUUUUCGGCGGAUGCCUCCAAA [A6C G43U] | < 1e-05 | < 1e-05 | < 1e-05 | < 1e-05 | < 1e-05 |
